In a protein production outcome set (Wang et al. 2014):

Assay: label from the status in PepcDB records

| Sequence | protein production |
| --- | --- |
| MIHFSINKNLFLQALNTTKRAISSKNAIPILSTVKIDVTNEGITLIGSNGQISIENFISQKNEDAGLLITSLGSILLEASFFINVVSSLPDVTLDFKEIEQNQIVLTSGKSEITLKGKDSEQYPRIQEISASTPLILETKLLKKIINETAFAASTQESRPILTGVHFVLSQHKELKTVATDSHRLSQKKLTLEKNSDDFDVVIPSRSLREFSAVFTDDIETVEIFFANNQILFRSENISFYTRLLEGNYPDTDRLIPTDFNTTITFNVVNLRQSMERARLLSSATQNGTVKLEIKDGVVSAHVHSPEVGKVNEEIDTDQVTGEDLTISFNPTYLIDSLKALNSEKVTISFISAVRPFTLVPADTDEDFMQLITPVRTN | not failed |
| MPRRDLLDLLALAAVWGGSFLFMRVAVPEFGPAALMELRVGLAALFLLPLALWRGKPALIARHWKAILVVGTLNSALPFLLYAYAAQSLGAGFLSVANAVTPVWGAVIGWLWLGDRLPRMRALGLLISLSGIIVLVWDKLDFHDGGTGPAVLAAISAPVFYGMAANWTKRYLGHVDALTNATGSMVAASLVLAPLAIIHWPEQAVSFEAWRATVLLAIVCTGAAYIVFFRLIARVGPTAAVSVTFLVPVFGVLWGVWFLDEAVTPRILAGAGVILVGTALALGLVGARRVAAAD | failed |
| MGFLESFVSFIVYLASTCGYVGIFILNMLEYACLPFPSEIVLPAIGASVASGKYSMIYALPISVIGGVVGTLISYSVGMYAGKKVISFAKRKHKKSKSIFEKIDRLFSRYGKITVFLARLLPFTRTYISLFAGAEKVNKIMFVIFSALGITIMDSFYLLLGYFAYDNKSFIEKALRHYSIGLIIIIVIAIFSYYIYKNLKLKKLKKEN | failed |
| MNIVIAVGILVTLVTGIPVLLQLLKGHPRGLIICFLAEMWERFSYYGMRAILIFYLTQHFLFDPKAASGHYGSYTALVYLVPLIGGFLADKWLGTRKAVAFGAVLLVAGHLAMAIEGKPAVQTLTYQGATYEFQAEGRGQNREAKLVVDGKAYEVAATKVGDFEIKGLPANAPLPAVLPKADYKLDVAGRDPLYLNIFWFSLSLIILGVGFLKPNISTIVGQLYPQGDPRRDPGFTLYYYGINLGSFWASILCGLLGVNVGWWAGFGLAGVGMLAGFIVFVLGKPWLDGKAEPPEPKVLKEKVAGPINRELAIYGLSLVGLVGIFFLVQFNAIVGVALNIGILASLGYIGFFMFTKCAKEERERLALAVFLIFGAVVFWTLFEQAGSSLSLFAATNVQLDLVREPLRLFSGAVTLATPDQLAKAGIDAASTFWVDTSFNAPQTQALNAGWILIFAPVFAAVWTFLGARGKDPNPVIKFGLALIQVGAGFLLLQWGSTFADGAFKLPLIFLVLMYMLHTTGELCMSPVGLSQMTKLSPASVVSFMMAVWFLAVAIAQWVGGKIAGLAATETVGGQVLDPGAALAASLKVFNIIGLVAVAIGIGFLLLSPVLKKWSHGADNVGAPKKA | failed |
| MDSSSLEQELRWMKLVWEEAPGDKTEGPLTSPGWSTLFQAVWWGAPSLVMQLLRQGSSVEERDHTGRTPLHLAVMRGHAPLVRLLLQRGALAGAADHTGRTPLHEAAWHGHSNVAELLLRRGASAAACSQTGLTPLHGAAALGRTLLVTSFTVASDSGSDVKDVRGWTAAHWAAACGQLAVLELLSAGGNADLDGALLVSAIAGSTSSLQLLLTLGAKVDTQDSTGATALGLAAGLGHHQMLFFLCCLKKKQERKTHCWDWPLANLDPLEEQKLQELSIPRNLASVPAGGWTPSPGYIFRTVDTFVHGQLMPTEERTTECSLAVSVDLISVRDCSPSPPAGFPPVSALTIHPRADGLAQRN | failed |
| MRITHLGHSCILVEAAGQRILVDPGNLSRSWRGLTDLDAILVTHRHPDHVDPEHIGALVDANSGAVVRAEEGACHEIPALDADPVAPGDVLQIGEVRIEAVGGRHAVIHRDLEPIGNVGYLIGEGLGTILYHPGDELDETPRGVDVLACPAHAPWAAMKETVDFARSVGARHGFLIHEGLLNGRGWQLSFDRHQEMVP | failed |
| NFATGTIATDPLNDSQVAVIASISKEMPGISISTSWDRKVLETSLSSIVGSVSSEKAGLPAEEAEAYLKKGYSLNDRVGTSYLEKQYEETLQGKRSVKEIHLDKYGNMESVDTIEEGSKGNNIKLTID | failed |
| MTYCVAMRLDAGLVFLSDSRTNAGVDAISTFRKMTVFEREGDRVMVLLTAGNLAISQAVRQVLTEARDKARSLWTARDMFEATTIVGEAVREVYDRDAAALAKAKIDFNVSIIFGGQIGGERPRLFNVYAAGNFIEATPENCYFQIGEAKYGKPIIDRLIRASLPLDEAAKCALISMDSTLKSNISVGLPLDLLVYEADSLRVTRFVAIDEENPYFAMIRSTWGKRLRQVFAEIEDPDWQTGTHPAHPLRRAGHPTAEVEPVRIAPPAAPPAAEGAAVPQRAPGPAFGQGAAAQRVAGGSHEPH | failed |
| MLKIYVVDNGGQWTHREWRVLRELGVDTKIVPNDIDSSELDGLDGLVLSGGAPNIDEELDKLGSVGKYIDDHNYPILGICVGAQFIALHFGASVVKAKHPEFGKTKVSVMHSENIFGGLPSEITVWENHNDEIINLPDDFTLAASSATCQVQGFYHKTRPIYATQFHPEVEHTQYGRDIFRNFIGICASYREIQKENFQH | not failed |
| MKTLFLQYPACSTCQKAKKWLIENNIEYTNRLIVDDNPTVEELKAWIPLSGLPVKKFFNTSGVVYKELKLSSKLPTMTEEEQIALLATNGKLVKRPLVVTERFVLVGFKPEEWEKL | not failed |
| MKLVWSPETASKAYIDTVKSCENLETPDAAELIAAMAAGWNVKLIVETWSEGDAIASSIGLNVASKHANAKHICIVQNSRSESAYLQAIQESSSPLNFPETIVAEEPGKAMKKLQGVDFLVVDWRNKEFAAAALKNAAFGNRGAVVVCRNGYSSLRRVLRDRKVVRTVTLPVTGGIEIAHVAARNSGKSGNNKRRWITHVDQRSGEEHVFSI | failed |
| MHLNTLAGRSYNDLMQYPVFPWILADYDSEEVDLTNPKTFRNLAKPMGAQTDERLAQYKKRYKDWEDPNGETPAYHYGTHYSSAMIVASYLVRMEPFTQIFLRLQGGHFDLADRMFHSVREAWYSASKHNMADVKELIPEFFYLPEFLFNSNNFDLGCKQNGTKLGDVILPPWAKGDPREFIRVHREALECDYVSAHLHEWIDLIFGYKQQGPAAVEAVNVFHHLFYEGQVDIYNINDPLKETATIGFINNFGQIPKQLFKKPHPPKRVRSRLNGDNAGISVLPGSTSDKIFFHHLDNLRPSLTPVKELKEPVGQIVCTDKGILAVEQNKVLIPPTWNKTFAWGYADLSCRLGTYESDKAMTVYECLSEWGQILCAICPNPKLVITGGTSTVVCVWEMGTSKEKAKTVTLKQALLGHTDTVTCATASLAYHIIVSGSRDRTCIIWDLNKLSFLTQLRGHRAPVSALCINELTGDIVSCAGTYIHVWSINGNPIVSVNTFTGRSQQIICCCMSEMNEWDTQNVIVTGHSDGVVRFWRMEFLQVPETPAPEPAEVLEMQGPLSHPHPNPIEVRNYSRLKPGYRWERQLVFRSKPTMHTAFDRKDNAHPAEVTALGISKDHSRILVGDSRGRVFSWSVSDQPGRSAADHWVKDEGGDSCSGCSVRFSLTERRHHCRNCGQLFCQKCSRFQSEIKRLKISSPVRVCQNCYYNLQHERGSEDGPRNC | failed |
| MTIAVDFDGTIVEHRYPRIGEEIPFAVETLKLLQQEKHRLILWSVREGELLDEAIEWCRARGLEFYAANKDYPEEERDHQGFSRKLKADLFIDDRNVGGIPDWGIIYEMIKEKKTFADIYSQQREENTSQKKKRKWLPF | not failed |
| MPVAISLPTSSTSHFFPRRRGHANHRYQRFSGAQSSTEDPYIRKNQTGVIIIGAGLAGLAAANQLTSKRIPFLLLEASDGVGGRVRTDIVDGFFLDRGFQIFITAYPEAKKLLDYEALDLQRFYAGAKVFYGGKFHTVADPLRHFWDSVASLANPIGSVVDKGLIALTRARVLIKSDEEILTAADEVPTIDLLRKIGFSETILDRFFRPFFGGIFFDRDLETTSKLFDFVFRCLALGENTLPAMGIGEISNQLAAKLPAKSVLLNTRVASIEYPNGSGSDPPSVRLQDGSVMKAELGVIIAVEQPEVNKLLDGIRDPVITKPARSTICLYFTAEPNQIPVQDPVLFLNGSNSGIINNMFFATNVARTYAPPGKALVSVSLIGLFEDRTDDDLAAEVLRELSGWFGESPVMSWKHLKTYRIQFAQPNQCPPTDLVKSPRVGSGLYLSGDYMTSATFDGALVSGRRAVEVLLRETGLIK | failed |
| MISDNFFTEHMTIVIAVAIVLLLIIILLTCWKRVPADKALVITGLKKRVLTGKGGIQVPFLETSCIISLEAVSMTTDITEAPSKQGIFVDIAGTAVVKVDNNPEKVLIAVEQFCSGNADRTTQNIKTVVEQILEGKLRGIVSTLTVEQINEDRVAFENSIEDSITRELDNMGLRLLSYTVLKIATQGGYLENRAIPQIAQSKADADIASAERARDTEVKTAAAVREGQKAKLEAEAEIAQSDRDKTIRMEQYRAEQDKIKANADVSYKLQEIENNKIVADRNVELAKKEAQVVEEQLVASVKKPADAKKYETEVQAEANKIKSIKEAEARAQALKIEAQARADAKLLEAKAEAEAIRAQGEAEAEALKAKGIAEAEAKDRLAEAMEKYGEAAMMSMVVERLPEIMAQIAKPMEQIDKITVIDNGSGDGGSKVSKIVSDVAANGFEVLKDLTGADLGEVVRTIANKNSNNKPKTK | failed |
| MGNFTFEEMNLMCIYNTGSRTGLIDSLREMRGELAPEETELRELTDSALGNLQAMSDAEFAELELYPDFDQ | failed |
| MSLSSGRTVPTRSHGLGKEGVSTTGASQVEFGDPELTARINDAMVQVEELLHTELSSGEDFLVDIVMHLTRAGGKRFRPMFALLASEFGEKPLSENVIKAAVVVEITHLATLYHDDVMDEASMRRGVPSANARWDNSVAILAGDILLAHASGLMSQLGTDTVAHFAETFGELVTGQMRETVGPRDTDPIEHYTNVIREKTGVLIASAGYLGAMHAGAAPEHIDALKNFGAAVGMIFQIVDDIIDIFSETHESGKTPGTDLREGVFTLPVLYALREDTPVGAELRDILTGPLEDDETVNHVLELLSQSGGRQAALDEVYRYMDIANAELDRLPDSTVKEALRNLATFTVKRVGEGHHHHHH | not failed |
| MNKTLIINAHPKVDDTSSVSIKVFKHFLESYKELISNNETIEQINLYDDVVPMIDKTVLSAWEKQGNGQELTREEQKVTERMSEILQQFKSANTYVIVLPLHNFNIPSKLKDYMDNIMIARETFKYTETGSVGLLKDGRRMLVIQASGGIYTNDDWYTDVEYSHKYLKAMFNFLGIEDYQIVRAQGTAVLDPTEVLQNAYKEVEEAASRLANKYIFSLEE | not failed |
| MTVEPFRNEPIETFQTEEARRAMREALRRVREEFGRHYPLYIGGEWVDTKERMVSLNPSAPSEVVGTTAKAGKAEAEAALEAAWKAFKTWKDWPQEDRSRLLLKAAALMRRRKRELEATLVYEVGKNWVEASADVAEAIDFIEYYARAALRYRYPAVEVVPYPGEDNESFYVPLGAGVVIAPWNFPVAIFTGMIVGPVAVGNTVIAKPAEDAVVVGAKVFEIFHEAGFPPGVVNFLPGVGEEVGAYLVEHPRIRFINFTGSLEVGLKIYEAAGRLAPGQTWFKRAYVETGGKDAIIVDETADFDLAAEGVVVSAYGFQGQKCSAASRLILTQGAYEPVLERVLKRAERLSVGPAEENPDLGPVVSAEQERKVLSYIEIGKNEGQLVLGGKRLEGEGYFIAPTVFTEVPPKARIAQEEIFGPVLSVIRVKDFAEALEVANDTPYGLTGGVYSRKREHLEWARREFHVGNLYFNRKITGALVGVQPFGGFKLSGTNAKTGALDYLRLFLEMKAVAERF | not failed |
| YAHLRAGALRRLLQAQRLLPTGVRFLVLEGYRPPQLQRRYFEEYAATMRAAHPDEAPDRIRELTSAYISPPEVAPHVSGGAVDLTLCGADGTELPLGTEVNATPEESEGACRTAAPNISVEARANRAVMDRALTAVGFVNYPTEWWHWSYGDR | failed |
